Reference: patent US20250223354A1 (BIOTHEUS, published 2025)
Values belong to the binder of their own block, whether it stands above or below them.

Key:
[1] = target: T1, cynomolgus TIGIT overexpressed on CHO cells (cynomolgus, UniProt A0A7N9I9V4 89-312); assay: flow cytometry on CHO cells overexpressing cynomolgus TIGIT, median fluorescence intensity PE-A; unit from the concentration axis
T1 construct: whole, on cells; also called CHO-cynoTIGIT cells
Text: (§1) Specifically, CHO cells overexpressing human TIGIT (CHO-huTIGIT cells), CHO cells overexpressing cynomolgus TIGIT (CHO-cynoTIGIT cells) and CHO cells overexpressing mouse TIGIT (CHO-muTIGIT cells) were generated by transfection of the pCHO1.0 vector (purchased from Invitrogen) with cDNA encoding human TIGIT, cynomolgus TIGIT and mouse TIGIT cloned into the multiple cloning site (MCS), respectively, followed by pressure screening. The overexpressing cells were expanded and adjusted to an appropriate cell density, and added to a 96-well flow cytometry plate. After centrifugation, the cells were added with a gradiently diluted sample to be tested, and incubated at 4° C. for 30 minutes. The cells were washed twice with PBS, and added with a fluorescent secondary antibody correspondingly diluted to an appropriate concentration, then incubated at 4° C. for 30 minutes, and washed twice with PBS. Cells were resuspended with PBS, and detected on a CytoFlex flow cytometer, and the corresponding MFI was calculated. Graphpad software was used for graphical analysis to obtain EC₅₀ values.

[2] = target: T1, cynomolgus TIGIT overexpressed on CHO …; assay: flow cytometry, CHO-cynoTIGIT cells
Text: as §1

[3] = target: T2, human TIGIT expressed on cells (human, UniProt Q495A1 22-244); assay: flow cytometry, CHO-huTIGIT cells
T2 construct: whole, on cells; cDNA encoding human TIGIT in pCHO1.0 for CHO cells; also called CHO-huTIGIT cells
T2 sequence (looked up): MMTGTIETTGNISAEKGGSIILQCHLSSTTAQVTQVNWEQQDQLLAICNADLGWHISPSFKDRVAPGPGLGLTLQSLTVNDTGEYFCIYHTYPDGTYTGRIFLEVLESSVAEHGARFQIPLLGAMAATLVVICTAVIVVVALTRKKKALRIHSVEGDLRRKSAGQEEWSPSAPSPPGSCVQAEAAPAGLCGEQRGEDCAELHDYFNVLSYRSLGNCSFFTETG
Text: as §1

[4] = target: T3, cynomolgus monkey TIGIT-his protein (cynomolgus monkey); assay: BLI (ForteBio), IgG on AHQ sensor, 100 nM TIGIT-his, monovalent, 1:1 model
T3 construct: also called Cynomolgus TIGIT-his; not shown: his tag
Method: (§2) Biofilm layer optical interference technology (ForteBio) was used to determine the binding and dissociation […] values of the anti-TIGIT monoclonal antibodies obtained in Example 1 to human, cynomolgus monkey and mouse TIGIT. Fortebio affinity measurements were performed according to existing methods (Este, P et al., High throughput solution-based measurement of antibody-antigen affinity and epitope binning. Mabs, 2013.5(2): p 270-8).
(§3) The antibody-loaded sensor was incubated in 100 nM TIGIT-his antigen to the plateau phase, and then the sensor was transferred to an analysis buffer and incubated for at least 2 minutes for measuring dissociation rate. The kinetic analysis was performed using a 1:1 binding model.

human TIGIT-his protein = target: T4, human TIGIT-his protein (human, UniProt Q495A1 22-141); assay: as above
T4 construct: not shown: his tag
T4 sequence: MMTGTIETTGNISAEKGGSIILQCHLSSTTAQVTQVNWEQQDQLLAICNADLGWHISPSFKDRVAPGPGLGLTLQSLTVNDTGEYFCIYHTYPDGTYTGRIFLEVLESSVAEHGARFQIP
Method: as §2, §3

mouse TIGIT-his protein = target: T5, mouse TIGIT-his protein (mouse, UniProt P86176 29-148); assay: as above
T5 construct: not shown: his tag
T5 sequence: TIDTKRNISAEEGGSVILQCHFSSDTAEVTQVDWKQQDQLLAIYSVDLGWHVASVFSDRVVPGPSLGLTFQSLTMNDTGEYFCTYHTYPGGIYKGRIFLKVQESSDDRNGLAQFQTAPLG
Method: as §2, §3

[5] = target: T6, mouse TIGIT overexpressed on CHO cells (mouse, UniProt P86176 29-249); assay: flow cytometry, competition with mouse CD155-mouse IgG2a Fc (2 ug/mL) on CHO-muTIGIT cells
T6 construct: whole, on cells; also called CHO-muTIGIT cells
T6 sequence (looked up): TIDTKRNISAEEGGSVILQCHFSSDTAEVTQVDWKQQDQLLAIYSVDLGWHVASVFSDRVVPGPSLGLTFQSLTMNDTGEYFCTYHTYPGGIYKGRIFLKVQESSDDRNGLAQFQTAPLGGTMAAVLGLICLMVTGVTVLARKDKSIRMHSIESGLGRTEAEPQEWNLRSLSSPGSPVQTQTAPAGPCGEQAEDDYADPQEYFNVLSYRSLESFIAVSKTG
Method: (§4) The CHO-muTIGIT cells were expanded and adjusted to a cell density of 2×10⁶ cells/mL, added to a 96-well flow plate at 100 μL/well, and centrifuged for later use. The purified antibodies were diluted 3-fold with PBS starting at 400 nM for a total of 12 concentration gradients. […] APC-conjugated goat anti-mouse IgG antibody diluted 100-fold with PBS was added at 100 μL/well, incubated at 4° C. for 30 minutes, and washed twice with PBS. Cells were resuspended with PBS at 100 μL/well, and detected on a CytoFlex flow cytometer, and the corresponding MFI was calculated. Graphpad software was used for graphing analysis to obtain IC₅₀ values.

[6] = target: T2, human TIGIT expressed on cells; assay: flow cytometry, competition with human CD155-mouse IgG2a Fc (2 ug/mL) on CHO-huTIGIT cells
Method: as §4, with “Specifically, the CHO-huTIGIT” for “The CHO-muTIGIT”, “purified monoclonal” for “purified”, “gradients. The diluted sample was added at 60 μL/well to the cells-carrying 96-well flow plate, and incubated at 4° C. for 30 minutes.” for “gradients.”, “calculated.” for “calculated. Graphpad software was used for graphing analysis to obtain IC₅₀ values.”

[7] = target: T2, human TIGIT expressed on cells; assay: flow cytometry blocking assay: binding of human CD155 protein with mouse IgG2a Fc tag to CHO cells overexpressing human TIGIT, median fluorescence intensity APC-A; unit from the concentration axis
Method: as §4, with “Specifically, the CHO-huTIGIT” for “The CHO-muTIGIT”, “purified monoclonal” for “purified”, “gradients. The diluted sample was added at 60 μL/well to the cells-carrying 96-well flow plate, and incubated at 4° C. for 30 minutes.” for “gradients.”, “calculated.” for “calculated. Graphpad software was used for graphing analysis to obtain IC₅₀ values.”

T1 sequence (A0A7N9I9V4 entry or part of it): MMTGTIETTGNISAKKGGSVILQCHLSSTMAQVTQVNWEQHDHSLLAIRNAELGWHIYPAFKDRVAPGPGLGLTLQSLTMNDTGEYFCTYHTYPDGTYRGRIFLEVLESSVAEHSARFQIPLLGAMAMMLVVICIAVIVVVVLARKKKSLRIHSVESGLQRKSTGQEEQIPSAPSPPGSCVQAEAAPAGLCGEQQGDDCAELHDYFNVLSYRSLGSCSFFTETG
T3 sequence (chain, as listed by the source): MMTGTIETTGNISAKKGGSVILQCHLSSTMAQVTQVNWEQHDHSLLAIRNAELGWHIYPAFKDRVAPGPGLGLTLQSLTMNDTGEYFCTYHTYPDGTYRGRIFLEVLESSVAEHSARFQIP

EC50 [1]: 1.32 nM
EC50 [2]: 1.32 nM
EC50 [3]: 0.96 nM
Kd [4]: 4.72 nM
Kd (human TIGIT-his protein): 0.199 nM
Kd (mouse TIGIT-his protein): 96 nM
IC50 [5]: 1.5 nM
IC50 [6]: 0.24 nM
IC50 [7]: 0.236 nM
B1: anti-TIGIT monoclonal antibody 55796-G1 (antibody, V domains shown)
VH: QLQLQESGPGLVKPAETLSLTCTVSGGSISSYDHYWTWIRQPPGKGLEWIGTVYYSGSTFHNPSLKSRVTIPVDTSKNQFSLKLSSVTAADTAVYYCARVGPDVSHPPFDYWGQGTLVTVSS
VL: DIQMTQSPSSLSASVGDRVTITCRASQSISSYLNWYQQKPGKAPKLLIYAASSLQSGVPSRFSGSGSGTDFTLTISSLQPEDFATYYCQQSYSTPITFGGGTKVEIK
notes: Wild-type human IgG1 heavy chain constant region, human kappa light chain constant region

EC50 [1]: 1.34 nM
EC50 [2]: 1.34 nM
EC50 [3]: 0.84 nM
Kd [4]: 4.9 nM
Kd (human TIGIT-his protein): 0.21 nM
Kd (mouse TIGIT-his protein): 61 nM
IC50 [5]: 1.56 nM
IC50 [6]: 0.37 nM
IC50 [7]: 0.373 nM
B2: anti-TIGIT monoclonal antibody 55796-G1LALA (antibody, V domains shown)
VH: B1 VH
VL: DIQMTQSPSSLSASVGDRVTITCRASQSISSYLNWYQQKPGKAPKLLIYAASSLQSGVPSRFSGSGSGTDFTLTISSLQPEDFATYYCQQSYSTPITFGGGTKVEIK
notes: Human IgG1 heavy chain constant region modified by L234A, L235A; human kappa light chain constant region; HEK293
